US20260234228A1 (GENOME, published 2026)
Residue numbers refer to the chain shown, from its start.

T1: mouse CNTN4 overexpressed on 293F cells (mouse, UniProt Q69Z26 19-1000)
T1 construct: whole, on cells; Overexpressed on 293F cells; the construct is not described; also called Mouse CNTN4 cell; mouse antigen-overexpressing 293F cells
T1 sequence (looked up): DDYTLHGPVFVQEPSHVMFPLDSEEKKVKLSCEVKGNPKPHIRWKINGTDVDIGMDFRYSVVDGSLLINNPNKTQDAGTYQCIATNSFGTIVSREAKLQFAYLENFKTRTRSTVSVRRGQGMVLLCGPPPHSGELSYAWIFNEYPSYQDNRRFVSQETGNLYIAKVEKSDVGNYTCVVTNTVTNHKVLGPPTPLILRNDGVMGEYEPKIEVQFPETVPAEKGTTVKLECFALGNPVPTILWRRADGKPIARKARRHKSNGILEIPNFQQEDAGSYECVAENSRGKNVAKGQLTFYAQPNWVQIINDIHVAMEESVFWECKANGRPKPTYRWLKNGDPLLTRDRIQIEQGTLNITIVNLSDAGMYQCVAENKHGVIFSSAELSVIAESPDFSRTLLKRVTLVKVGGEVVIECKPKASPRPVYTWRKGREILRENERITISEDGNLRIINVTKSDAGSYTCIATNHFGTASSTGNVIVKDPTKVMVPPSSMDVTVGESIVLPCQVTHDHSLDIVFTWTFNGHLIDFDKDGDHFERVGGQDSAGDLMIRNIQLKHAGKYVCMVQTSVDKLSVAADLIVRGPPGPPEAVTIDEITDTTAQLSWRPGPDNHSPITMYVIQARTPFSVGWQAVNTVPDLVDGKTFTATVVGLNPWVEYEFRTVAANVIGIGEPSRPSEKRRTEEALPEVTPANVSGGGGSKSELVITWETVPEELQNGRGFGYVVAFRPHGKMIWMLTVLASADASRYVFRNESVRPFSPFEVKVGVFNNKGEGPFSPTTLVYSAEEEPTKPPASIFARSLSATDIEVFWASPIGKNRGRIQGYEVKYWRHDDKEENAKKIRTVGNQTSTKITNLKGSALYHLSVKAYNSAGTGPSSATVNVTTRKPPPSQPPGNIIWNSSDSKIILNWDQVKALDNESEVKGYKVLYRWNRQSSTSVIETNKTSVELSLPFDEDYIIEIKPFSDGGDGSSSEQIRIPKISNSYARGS

T2: human CNTN4 overexpressed on cells (human, UniProt Q8IWV2 19-1000)
T2 construct: whole, on cells; the construct is not described; also called human CNTN4 cell; human CNTN4-overexpressing 293F cells
T2 sequence (looked up): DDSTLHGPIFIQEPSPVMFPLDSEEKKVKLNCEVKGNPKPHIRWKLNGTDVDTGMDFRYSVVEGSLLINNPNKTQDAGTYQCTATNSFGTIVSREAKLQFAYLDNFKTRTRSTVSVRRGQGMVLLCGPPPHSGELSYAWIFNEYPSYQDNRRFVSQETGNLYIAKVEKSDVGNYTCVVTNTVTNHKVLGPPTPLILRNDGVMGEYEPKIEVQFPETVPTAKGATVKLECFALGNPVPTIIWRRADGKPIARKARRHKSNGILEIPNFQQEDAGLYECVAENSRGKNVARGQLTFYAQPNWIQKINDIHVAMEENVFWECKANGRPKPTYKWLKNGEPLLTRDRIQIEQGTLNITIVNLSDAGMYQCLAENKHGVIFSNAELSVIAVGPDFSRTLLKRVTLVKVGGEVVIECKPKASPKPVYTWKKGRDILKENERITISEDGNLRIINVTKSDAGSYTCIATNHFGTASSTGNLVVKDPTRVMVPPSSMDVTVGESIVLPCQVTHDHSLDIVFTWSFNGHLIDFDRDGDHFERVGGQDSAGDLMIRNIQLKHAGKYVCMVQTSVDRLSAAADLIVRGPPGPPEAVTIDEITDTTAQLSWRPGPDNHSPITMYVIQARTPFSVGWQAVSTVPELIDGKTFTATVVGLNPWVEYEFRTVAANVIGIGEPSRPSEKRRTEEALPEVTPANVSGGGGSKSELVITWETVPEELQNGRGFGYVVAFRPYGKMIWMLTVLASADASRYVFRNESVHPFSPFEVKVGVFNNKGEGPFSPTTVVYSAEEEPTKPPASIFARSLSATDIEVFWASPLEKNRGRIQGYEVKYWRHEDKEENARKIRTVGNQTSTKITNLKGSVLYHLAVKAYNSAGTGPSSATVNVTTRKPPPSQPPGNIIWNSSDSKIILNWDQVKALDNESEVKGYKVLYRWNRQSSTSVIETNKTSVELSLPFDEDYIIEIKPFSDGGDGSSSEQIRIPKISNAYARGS

B1: A101 scFv (scFv, V domains shown)
VH: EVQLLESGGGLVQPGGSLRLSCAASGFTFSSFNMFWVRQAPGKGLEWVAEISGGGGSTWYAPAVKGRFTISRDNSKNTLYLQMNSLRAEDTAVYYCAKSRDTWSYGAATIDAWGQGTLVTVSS
VL: ELTQDPAVSVALGQTVRITCSGSSGSYGWYQQKPGQAPVLVIYDNTNRPSGIPDRFSGSSSGNTASLTITGAQAEDEADYYCGGYDGSTDVFGGGTKLTVL
B2: A105 scFv (scFv, V domains shown)
VH: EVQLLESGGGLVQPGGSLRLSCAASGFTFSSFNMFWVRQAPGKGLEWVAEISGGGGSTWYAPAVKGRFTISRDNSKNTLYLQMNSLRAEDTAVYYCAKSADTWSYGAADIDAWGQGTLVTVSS
VL: B1 VL
B3: A106 scFv (scFv, V domains shown)
VH: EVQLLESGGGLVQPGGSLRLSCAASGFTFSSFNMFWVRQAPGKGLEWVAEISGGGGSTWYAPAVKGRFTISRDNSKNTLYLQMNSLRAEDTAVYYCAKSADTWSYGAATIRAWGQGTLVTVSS
VL: B1 VL
B4: A107 scFv (scFv, V domains shown)
VH: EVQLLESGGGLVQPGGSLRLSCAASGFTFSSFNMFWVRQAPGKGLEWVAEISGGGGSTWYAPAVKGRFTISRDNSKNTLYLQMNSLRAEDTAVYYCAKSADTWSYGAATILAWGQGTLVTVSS
VL: B1 VL
B5: A108 scFv (scFv, V domains shown)
VH: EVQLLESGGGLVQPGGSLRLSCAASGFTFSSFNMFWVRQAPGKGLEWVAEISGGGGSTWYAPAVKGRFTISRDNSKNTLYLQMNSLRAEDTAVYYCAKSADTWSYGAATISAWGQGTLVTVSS
VL: B1 VL
B6: A109 scFv (scFv, V domains shown)
VH: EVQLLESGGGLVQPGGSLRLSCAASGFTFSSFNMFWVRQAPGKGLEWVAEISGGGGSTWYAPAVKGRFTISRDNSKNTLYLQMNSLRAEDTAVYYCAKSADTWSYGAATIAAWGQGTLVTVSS
VL: B1 VL
B7: A110 scFv (scFv, V domains shown)
VH: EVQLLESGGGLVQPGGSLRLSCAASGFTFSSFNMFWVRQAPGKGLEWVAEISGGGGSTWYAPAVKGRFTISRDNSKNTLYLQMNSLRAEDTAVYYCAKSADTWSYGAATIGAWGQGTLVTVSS
VL: B1 VL
B8: A111 scFv (scFv, V domains shown)
VH: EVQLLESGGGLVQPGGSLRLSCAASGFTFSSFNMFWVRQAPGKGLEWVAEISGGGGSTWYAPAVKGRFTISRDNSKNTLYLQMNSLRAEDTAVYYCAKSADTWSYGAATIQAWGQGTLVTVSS
VL: B1 VL
B9: A112 scFv (scFv, V domains shown)
VH: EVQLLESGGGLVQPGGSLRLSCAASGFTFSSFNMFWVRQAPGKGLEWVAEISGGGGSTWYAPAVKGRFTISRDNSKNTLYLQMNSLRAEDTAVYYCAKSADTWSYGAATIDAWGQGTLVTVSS
VL: B1 VL with S23R
B10: A113 scFv (scFv, V domains shown)
VH: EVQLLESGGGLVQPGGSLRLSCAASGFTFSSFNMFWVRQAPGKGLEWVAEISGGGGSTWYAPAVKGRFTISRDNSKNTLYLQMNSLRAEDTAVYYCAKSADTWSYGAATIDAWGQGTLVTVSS
VL: B1 VL with D86R
B11: A114 scFv (scFv, V domains shown)
VH: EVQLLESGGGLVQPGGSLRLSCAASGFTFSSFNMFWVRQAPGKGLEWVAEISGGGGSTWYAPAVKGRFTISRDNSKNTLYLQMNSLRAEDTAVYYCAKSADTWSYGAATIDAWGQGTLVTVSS
VL: B1 VL with D86W
B12: A102 scFv (scFv, V domains shown)
VH: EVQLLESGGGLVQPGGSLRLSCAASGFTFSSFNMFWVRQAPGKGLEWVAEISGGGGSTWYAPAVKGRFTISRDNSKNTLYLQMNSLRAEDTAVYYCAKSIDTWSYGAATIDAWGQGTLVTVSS
VL: B1 VL
B13: A103 scFv (scFv, V domains shown)
VH: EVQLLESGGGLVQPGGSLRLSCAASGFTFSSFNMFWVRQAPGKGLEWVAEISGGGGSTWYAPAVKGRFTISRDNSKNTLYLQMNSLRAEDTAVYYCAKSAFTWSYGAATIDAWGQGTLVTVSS
VL: B1 VL
B14: A104 scFv (scFv, V domains shown)
VH: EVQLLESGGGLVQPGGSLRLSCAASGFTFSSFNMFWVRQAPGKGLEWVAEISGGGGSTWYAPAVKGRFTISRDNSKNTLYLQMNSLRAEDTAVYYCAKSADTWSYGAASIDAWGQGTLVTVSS
VL: B1 VL
B15: A207 scFv (scFv, V domains shown)
VH: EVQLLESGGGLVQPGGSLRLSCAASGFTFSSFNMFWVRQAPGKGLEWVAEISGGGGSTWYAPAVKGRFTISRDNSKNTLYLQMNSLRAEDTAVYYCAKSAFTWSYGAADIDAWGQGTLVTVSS
VL: B1 VL with D86W
B16: A208 scFv (scFv, V domains shown)
VH: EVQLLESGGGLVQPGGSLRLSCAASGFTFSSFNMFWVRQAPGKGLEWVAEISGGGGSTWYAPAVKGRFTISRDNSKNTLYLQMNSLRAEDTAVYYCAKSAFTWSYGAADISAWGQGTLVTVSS
VL: B1 VL with D86W
B17: A209 scFv (scFv, V domains shown)
VH: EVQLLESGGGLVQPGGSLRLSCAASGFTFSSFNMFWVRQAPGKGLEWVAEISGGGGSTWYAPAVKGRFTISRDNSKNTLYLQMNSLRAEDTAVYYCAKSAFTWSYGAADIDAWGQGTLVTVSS
VL: B1 VL with S23R, D86W
B18: A210 scFv (scFv, V domains shown)
VH: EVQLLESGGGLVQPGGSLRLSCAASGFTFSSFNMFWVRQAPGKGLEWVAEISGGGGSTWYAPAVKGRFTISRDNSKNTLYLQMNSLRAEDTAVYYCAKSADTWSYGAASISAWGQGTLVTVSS
VL: B1 VL with S23R, D86W
B19: A211 scFv (scFv, V domains shown)
VH: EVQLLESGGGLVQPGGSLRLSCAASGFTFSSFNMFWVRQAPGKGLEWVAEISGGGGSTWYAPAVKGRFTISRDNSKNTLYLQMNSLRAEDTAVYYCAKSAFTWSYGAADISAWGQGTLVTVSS
VL: B1 VL with S23R, D86W
B20: A212 scFv (scFv, V domains shown)
VH: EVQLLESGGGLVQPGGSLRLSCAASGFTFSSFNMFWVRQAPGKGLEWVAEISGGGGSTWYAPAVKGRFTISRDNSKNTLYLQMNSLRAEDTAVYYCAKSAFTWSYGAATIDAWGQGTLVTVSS
VL: B1 VL with S23R, D86W
B21: A213 scFv (scFv, V domains shown)
VH: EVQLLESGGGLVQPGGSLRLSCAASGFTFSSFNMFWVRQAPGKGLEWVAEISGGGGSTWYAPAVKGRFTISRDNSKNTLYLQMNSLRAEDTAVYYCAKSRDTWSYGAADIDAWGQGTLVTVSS
VL: B1 VL with D86W
B22: A214 scFv (scFv, V domains shown)
VH: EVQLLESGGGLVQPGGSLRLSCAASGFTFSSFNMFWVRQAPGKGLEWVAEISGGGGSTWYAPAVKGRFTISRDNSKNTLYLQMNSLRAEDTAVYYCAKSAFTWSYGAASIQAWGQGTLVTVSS
VL: B1 VL with D86W
B23: A215 scFv (scFv, V domains shown)
VH: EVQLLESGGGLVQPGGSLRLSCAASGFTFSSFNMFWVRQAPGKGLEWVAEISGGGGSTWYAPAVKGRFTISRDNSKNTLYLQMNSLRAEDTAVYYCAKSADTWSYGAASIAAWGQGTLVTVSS
VL: B1 VL with D86W
B24: A216 scFv (scFv, V domains shown)
VH: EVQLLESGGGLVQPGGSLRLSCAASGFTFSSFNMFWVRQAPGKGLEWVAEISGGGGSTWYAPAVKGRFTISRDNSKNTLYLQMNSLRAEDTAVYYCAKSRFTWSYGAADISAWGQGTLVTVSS
VL: B1 VL with S23R, D86W
B25: A217 scFv (scFv, V domains shown)
VH: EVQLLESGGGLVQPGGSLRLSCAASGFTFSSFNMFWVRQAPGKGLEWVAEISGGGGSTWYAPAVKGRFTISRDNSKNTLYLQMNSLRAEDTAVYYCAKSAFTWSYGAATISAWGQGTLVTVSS
VL: B1 VL with D86W
B26: A218 scFv (scFv, V domains shown)
VH: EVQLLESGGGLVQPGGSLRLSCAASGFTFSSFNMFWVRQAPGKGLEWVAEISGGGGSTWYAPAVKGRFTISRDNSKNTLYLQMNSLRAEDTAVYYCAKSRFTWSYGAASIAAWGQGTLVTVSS
VL: B1 VL with S23R, D86W
B27: A219 scFv (scFv, V domains shown)
VH: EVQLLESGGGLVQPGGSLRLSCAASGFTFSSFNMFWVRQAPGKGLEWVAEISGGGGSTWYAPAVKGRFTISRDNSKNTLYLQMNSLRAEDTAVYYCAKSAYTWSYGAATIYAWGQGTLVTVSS
VL: B1 VL with D86W
B28: A201 scFv (scFv, V domains shown)
VH: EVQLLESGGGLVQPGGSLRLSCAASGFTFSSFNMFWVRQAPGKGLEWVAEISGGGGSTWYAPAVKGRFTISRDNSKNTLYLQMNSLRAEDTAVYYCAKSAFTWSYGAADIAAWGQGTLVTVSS
VL: B1 VL with S23R, D86W
B29: A202 scFv (scFv, V domains shown)
VH: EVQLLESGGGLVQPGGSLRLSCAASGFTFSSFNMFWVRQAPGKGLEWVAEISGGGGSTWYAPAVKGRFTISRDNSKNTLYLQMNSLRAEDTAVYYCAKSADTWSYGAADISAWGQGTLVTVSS
VL: B1 VL with S23R, D86W
B30: A203 scFv (scFv, V domains shown)
VH: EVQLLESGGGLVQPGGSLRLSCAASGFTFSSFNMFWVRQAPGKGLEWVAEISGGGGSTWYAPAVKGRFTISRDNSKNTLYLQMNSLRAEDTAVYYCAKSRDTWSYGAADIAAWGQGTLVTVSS
VL: B1 VL with S23R, D86W
B31: A204 scFv (scFv, V domains shown)
VH: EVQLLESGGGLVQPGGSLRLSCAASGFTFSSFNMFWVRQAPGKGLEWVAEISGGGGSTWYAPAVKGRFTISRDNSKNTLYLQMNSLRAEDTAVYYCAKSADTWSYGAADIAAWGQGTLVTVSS
VL: B1 VL with S23R, D86W
B32: A205 scFv (scFv, V domains shown)
VH: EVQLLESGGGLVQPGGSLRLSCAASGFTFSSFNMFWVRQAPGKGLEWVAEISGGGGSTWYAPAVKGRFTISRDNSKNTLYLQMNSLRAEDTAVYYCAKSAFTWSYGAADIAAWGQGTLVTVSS
VL: B1 VL with D86W
B33: A206 scFv (scFv, V domains shown)
VH: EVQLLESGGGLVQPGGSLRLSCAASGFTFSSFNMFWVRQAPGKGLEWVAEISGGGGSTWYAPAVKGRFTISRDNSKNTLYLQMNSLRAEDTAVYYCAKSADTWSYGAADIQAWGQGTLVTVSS
VL: B1 VL with S23R, D86W

These binders were tested against T1, mouse CNTN4 overexpressed on 293F cells (assay: FACS, scFv periplasm on mouse CNTN4-overexpressing 293F cells, PE anti-His detection).
In the case of B1, the EC50 is reported as 33.2 nM and the “Top MFI” value is reported as 2070 MFI.
For B2, the EC50 was 13.9 nM and the “Top MFI” value was 2460 MFI.
With B3 the EC50 was 72.6 nM and the “Top MFI” value was 2740 MFI.
In the case of B4, the EC50 is reported as 13.6 nM and the “Top MFI” value is reported as 4110 MFI.
B5 was tested, and the EC50 was 20.2 nM and the “Top MFI” value was 2840 MFI.
With B6 the EC50 was 8.3 nM and the “Top MFI” value was 2830 MFI.
B7 was tested, and the EC50 was 20.1 nM and the “Top MFI” value was 2150 MFI.
In the case of B8, the EC50 is reported as 10.4 nM and the “Top MFI” value is reported as 4190 MFI.
For B9, the EC50 was 32.5 nM and the “Top MFI” value was 1860 MFI.
B10 was tested, and the EC50 was 45.8 nM and the “Top MFI” value was 1100 MFI.
B11 was tested, and the EC50 was 7.6 nM and the “Top MFI” value was 2260 MFI.
For B12, the EC50 was 17.3 nM and the “Top MFI” value was 2110 MFI.
With B13 the EC50 was 12 nM and the “Top MFI” value was 2740 MFI.
In the case of B14, the EC50 is reported as 29.4 nM and the “Top MFI” value is reported as 2050 MFI.

The binders below were run against T2, human CNTN4 overexpressed on cells (assay: FACS, scFv periplasm on human CNTN4-overexpressing 293F cells, PE anti-His detection).
With B15 the EC50 was 3.2 nM and the “Top MFI” value was 1620 MFI.
In the case of B16, the EC50 is reported as 3.7 nM and the “Top MFI” value is reported as 1320 MFI.
For B17, the EC50 was 2.3 nM and the “Top MFI” value was 1600 MFI.
B18 was tested, and the EC50 was 4.4 nM and the “Top MFI” value was 1380 MFI.
With B19 the EC50 was 3.1 nM and the “Top MFI” value was 1370 MFI.
With B20 the EC50 was 2.7 nM and the “Top MFI” value was 1630 MFI.
For B21, the EC50 was 3.2 nM and the “Top MFI” value was 1700 MFI.
In the case of B22, the EC50 is reported as 3.5 nM and the “Top MFI” value is reported as 1460 MFI.
In the case of B23, the EC50 is reported as 3.6 nM and the “Top MFI” value is reported as 1470 MFI.
B24 was tested, and the EC50 was 2.9 nM and the “Top MFI” value was 1630 MFI.
For B25, the EC50 was 2.8 nM and the “Top MFI” value was 1740 MFI.
With B26 the EC50 was 3.7 nM and the “Top MFI” value was 1290 MFI.
In the case of B27, the EC50 is reported as 3.9 nM and the “Top MFI” value is reported as 1270 MFI.
With B28 the EC50 was 3.2 nM and the “Top MFI” value was 1380 MFI.
For B29, the EC50 was 3 nM and the “Top MFI” value was 1750 MFI.
B30 was tested, and the EC50 was 3.3 nM and the “Top MFI” value was 1240 MFI.
With B31 the EC50 was 1.7 nM and the “Top MFI” value was 1700 MFI.
With B32 the EC50 was 2 nM and the “Top MFI” value was 1300 MFI.
For B33, the EC50 was 4.8 nM and the “Top MFI” value was 1370 MFI.
